The record followed here is the supplement of paper PMC12042874.

± gives the uncertainty stated by the source.

The first data set is described as follows: amyloid nucleation score (Sup35N fusion, yeast selection) (log enrichment); library NNK1; higher = more nucleation; inactive = no reads after selection. In outline:
(§1)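 Peptides of 20 random codons, each fused to Sup35N, were expressed in psi-negative yeast. Cells were induced with 100 μM copper sulfate for 24 hours and grown 7 days at 30°C on medium lacking adenine and uracil, and plasmid inserts before and after selection were Illumina-sequenced. Nucleation scores are DiMSum log enrichments of output over input reads, centred on the mode score of non-aggregating sequences, and sequences under 100 input reads were excluded.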
The substance AALTCLCCWAFFVISKNNYQ yielded an amyloid nucleation score of 0.995 ± 0.58.
The same measure, in the same setting: in the case of AATGRTVCESREWGKVLAVC it was -0.459 ± 0.38.
On the same count and under the same terms, in the case of AAVRALLYRCVVHVRFFFKE it was 1.06 ± 0.54; in that of AAWDLVVGQ, -0.473 ± 0.32; in that of AAWMWWTLLSTY, -0.377 ± 0.37.
Still for that read-out and setting: as for ACFWYTL, the figure is 0.024 ± 0.47.
Consider ACNTSSIYALTFVCHLSVGV, for which the amyloid nucleation score worked out at 4.67 ± 0.057.
The substance ACVMRIDAFFMTISVRLLRL showed an amyloid nucleation score of 1.79 ± 0.3.
Still for that read-out and setting: in the case of ADFFESEQVHYKSELAKNHG it was 0.049 ± 0.69; in that of ADFKEFECDLARPLLGIKFL, 0.054 ± 0.91.
For the substance ADNFIGVVYTMLVRRYMPNS, the amyloid nucleation score is -1.65 ± 1.2.
Same read-out and setting: in the case of ADYTQCRLYVM it was -0.132 ± 0.21; in that of AELVQFSCLKLSFKSSENPS, 3.06 ± 0.21; in that of AESWHVGKS, -0.593 ± 0.59.
Still for that read-out and setting: in the case of AEYNVGLLSCSNDSLWDQWS it was “inactive”.
Still for that read-out and setting: as for AFALHSHFLSL, the figure is 1.75 ± 0.19; as for AFAVTASAITTVPPYREFVG, -0.545 ± 0.82.
On to AFDIVDRSRYILY, for which the amyloid nucleation score was 0.58 ± 0.6.
The same measure, in the same setting: as for AFLGYNKIVGLNLAVLNTVG, the entry is “inactive”; as for AFLKLSTRWWKPVIFYKCDL, -0.932 ± 1.1.
The same measure, in the same setting: as for AFLLEMKTKAATPRCYLRDM, the figure is 0.532 ± 0.85; as for AFMGPWEPFLVHFTRRPSPY, -0.856 ± 2.4; as for AFPQFLGCLVIFQSHGRRER, 8.1 ± 0.064.
Still for that read-out and setting: as for AFPSVRSAFSYLVVPCTICT, the figure is 0.606 ± 0.53; as for AFQESRGQSNWYIYMLVHTS, 1.11 ± 0.54; as for AFSSLTC, -0.087 ± 1.
Substance AFVLDIYMGMRSRYNDAPS came in with an amyloid nucleation score of 1.78 ± 0.31.
Substance AFYSEMGFSDVYILLVYSMM showed an amyloid nucleation score of 4.45 ± 0.073.
On the same count and under the same terms, as for AGDLGPREQGR, the figure is 0.171 ± 1.2; as for AGDTMAVWLPHQKRGGCFEM, -0.815 ± 1.2.
The substance AGVAPYWVPTSEQDQLRRGT showed an amyloid nucleation score of -0.721 ± 1.9.
Still for that read-out and setting: in the case of AGYCVCLYMLEYSGTFGYSH it was 1.63 ± 0.19; in that of AHIISIKYLGSIFNKRRRFA, 0.874 ± 0.66.
Take AIAGSAMVEGAH: the amyloid nucleation score was 0.985 ± 0.77.
As for AIDSVNMTTLRWM, the amyloid nucleation score turned out to be 0.292 ± 0.62.
Same read-out and setting: as for AILVGMFYAKTVGGQYRVHG, the figure is 0.369 ± 0.61.
With AIVSGRTFDKPNMKRCL, the amyloid nucleation score is -1.44 ± 0.69.
Still for that read-out and setting: in the case of AKEVLYFR it was 0.505 ± 0.24.
On the same count and under the same terms, in the case of AKKWNSSMAKCNFNCLKSVW it was -2.05 ± 2.7.
Same read-out and setting: in the case of AKMYLRTLYTSPLRLPLAPQ it was -0.333 ± 1.4; in that of AKSREWGDIARFSHPPALRA, -0.147 ± 0.4.
ALCYPLMDSRSSRSYVQTRR: the amyloid nucleation score came out at 2.61 ± 0.12.
Same read-out and setting: as for ALIFYRFLL, the figure is 0.863 ± 0.41; as for ALILTVIDHVSAHYYVAEDV, 5.59 ± 0.081; as for ALLPKFCDIKFVVEKNGENR, 0.181 ± 1.4.
The substance ALNYSRGMTMVGVCLPHKLT showed an amyloid nucleation score of -0.147 ± 0.3.
Same read-out and setting: as for ALPHSKFKAMVFRSLWRDRG, the figure is 0.51 ± 1.2; as for ALRAHHSL, 0.498 ± 0.56; as for ALRRIGSFVVHLDIRAVSQT, 1.09 ± 0.5.
Still for that read-out and setting: in the case of ALSSAALEYNIPVGSGAFVN it was 0.25 ± 1.4.
The same measure, in the same setting: as for ALSSVNFFQLL, the figure is 4.45 ± 0.12; as for ALVALRAY, 0.364 ± 1.2; as for ALVFSALLVFRCGDCAASKA, 4.25 ± 0.062.
The substance AMKLVPLNLYFKDNKNQSSC came in with an amyloid nucleation score of -0.033 ± 0.31.
In the case of AMWYMKCNTYKVWLGDMYLV, the amyloid nucleation score was 0.193 ± 0.18.
On the same count and under the same terms, as for ANFGFWFAFYSAARSDRTSL, the figure is -0.421 ± 1.2; as for ANGLMGSWSLEARSFRSDVL, -0.179 ± 1.5; as for ANTPRFMNTLV, -0.824 ± 0.51.
On to ANWFL, for which the amyloid nucleation score is 0.479 ± 0.45.
As for APGDWLLSDASAAVGEMVE, the amyloid nucleation score was determined as 0.778 ± 0.81.
Regarding APQFTKGFSEFGDLGAMRRA, the amyloid nucleation score worked out at 0.196 ± 0.67.
Turning to AQNSWGGILSVTAGQEFYCL, the amyloid nucleation score was -0.674 ± 1.7.
Still for that read-out and setting: in the case of AQQGIYCRCTVCGQ it was 1.41 ± 0.28; in that of ARERGCRSAH, 0.332 ± 0.42; in that of ARFMLAWEVNCQG, 1.39 ± 0.22.
The same measure, in the same setting: as for ARSFETLLTTSRGGKVDWLT, the figure is -0.272 ± 0.24; as for ARYRYVTVYQV, -0.725 ± 0.35.
On to ARYYIVREGSEKCDLLTGRG, for which the amyloid nucleation score was found to be 0.004 ± 0.61.
On the same count and under the same terms, in the case of ASAMLMHF it was 0.716 ± 0.2.
The same measure, in the same setting: as for ASDMSCMQSNSYFNLWTYTM, the figure is 1.32 ± 0.4.
On the same count and under the same terms, as for ASFQFSSCMCSLYAVFSRLL, the figure is 0.759 ± 0.44; as for ASFSLDYSFQMPYILRWFIR, 1.03 ± 0.33.
For ASLAMISRMYSSYLDGMVFS, the amyloid nucleation score was -0.412 ± 0.91.
The same measure, in the same setting: in the case of ASLKCEKGVCGVFGWSGVGH it was -0.687 ± 1.4.
On the same count and under the same terms, as for ASLRLSTSLCEYGYRGRYTK, the figure is -0.05 ± 0.25; as for ASRIHYWWS, 0.787 ± 0.25.
With ASRYGSLVPRVVKHLMTRGN, the amyloid nucleation score was -1 ± 0.67.
Still for that read-out and setting: as for ASVFLNQLLPCNYSAVRMGS, the figure is 0.134 ± 0.84.
Still for that read-out and setting: in the case of ATCNSVRARGFTPGHHLAPG it was -0.405 ± 1.7; in that of ATKSLRIYLARVMHETSTFG, -0.822 ± 0.61; in that of ATLEGVCNINHPSCCASLLD, 0.002 ± 0.61.
Still for that read-out and setting: in the case of ATLHGFLLKICLADVLAYLV it was 0.476 ± 0.42; in that of ATMSRGFKQ, 0.834 ± 0.36.
ATNSEAARYLS showed an amyloid nucleation score of 0.996 ± 0.62.
On to ATRVFLHIATQRSNLAYLPN, for which the amyloid nucleation score is -0.189 ± 0.25.
The same measure, in the same setting: as for ATSKRIQWLMRERAPPTRYP, the figure is 0.203 ± 1.5; as for ATVSDF, -0.478 ± 0.36; as for AVEVYGVISRKLINVSDRIG, 0.588 ± 0.69.
The same measure, in the same setting: in the case of AVKEGWLFSQVVVERGWNL it was -0.588 ± 0.63.
Same read-out and setting: as for AVSAFSTVKSSFGDGGIGFF, the figure is -0.398 ± 0.34.
Turning to AVSSVVPGTCL, the amyloid nucleation score came to 0.55 ± 0.68.
In turn, AVVCVIIFYVNDRLYGCNLS had an amyloid nucleation score of 0.395 ± 0.23.
The same measure, in the same setting: as for AVVDRDMHYASTCSGGVGCH, the figure is -0.186 ± 0.96; as for AVVWDTIYNKTKPLVRP, 0.57 ± 0.93.
Same read-out and setting: in the case of AWCSSDGCFCPKRYMLLRSL it was 0.159 ± 0.84; in that of AWGRDYEELSSPLGMKALTW, 0.381 ± 0.31; in that of AWKGRLAYKWIGNMMAGLVW, 0.005 ± 0.32.
Substance AWKLRVFRDSAL yielded an amyloid nucleation score of 0.608 ± 1.1.
Still for that read-out and setting: as for AWLKSSGEEVVAGAQRPEHV, the figure is -1.02 ± 0.9.
Still for that read-out and setting: as for AWNGFDWYHARFCTMSTYIL, the figure is -0.56 ± 0.38.
Same read-out and setting: in the case of AWSLTSTHFG it was 0.249 ± 0.69; in that of AYCFNSTGLSRFCSKYLWSN, -0.478 ± 0.45.
Turning to AYCGSWLQYL, the amyloid nucleation score is -0.231 ± 0.76.
The same measure, in the same setting: as for AYCVAHTYCMSGMRYIADWV, the figure is 0.421 ± 0.31; as for AYETLR, -0.385 ± 0.59; as for AYLADCFPDVSTNWVRAISA, -0.337 ± 0.29.

A further data set is described as follows: amyloid nucleation score (Sup35N fusion, yeast selection) (log enrichment); library NNK2; higher = more nucleation; inactive = no reads after selection. The essentials: as §1
As to YTRSAGGLISL, the amyloid nucleation score is -0.774 ± 1.1.
YTRWWLWWGFNNCWRYWSEK registered an amyloid nucleation score of -0.96 ± 0.55.
The substance YTSGSTGRDLLPNMKRGSVV showed an amyloid nucleation score of 4.36 ± 0.12.
Same read-out and setting: as for YTVNCCIRANANGAFFSKVQ, the figure is 3.69 ± 0.053; as for YVAAGLWVMWTGALKMRQAG, 0.954 ± 0.66.
Still for that read-out and setting: as for YVCTRWVAYYLEWYGLDGPV, the figure is 0.665 ± 0.45; as for YVFIYESPYSSRSCPNALVS, -0.011 ± 0.46; as for YVFSIYGPFLLVEGLSTPFR, 4.49 ± 0.095.
On the same count and under the same terms, in the case of YVGLV it was -0.23 ± 0.22.
YVLGEHRIRCGEDYV displayed an amyloid nucleation score of 1.77 ± 0.31.
The same measure, in the same setting: in the case of YVNMAVNLTTDGQMTWNSRT it was 6.65 ± 0.035; in that of YVNPKVAWAGIDSAAEEDSD, 0.047 ± 0.49.
On the same count and under the same terms, in the case of YVRYFSIQTGHV it was “inactive”; in that of YVSLNNRQKFLAARLPKLEG, -0.51 ± 0.64.
YVWIQTLYALWYFSLRFAGL came in with an amyloid nucleation score of -0.413 ± 0.49.
Still for that read-out and setting: as for YWFQKLEGSRHDMV, the figure is -0.121 ± 1.1; as for YWFVGTPCAVRVGWFSQPHR, 0.612 ± 0.45; as for YWGSFGDKLKLLNMCPLSLD, “inactive”.
The same measure, in the same setting: as for YWIRIRIQCFQGSIEQDTER, the figure is 4.96 ± 0.066.
Still for that read-out and setting: as for YWLVRMVHGRAWPIFEENCQ, the figure is -0.01 ± 1; as for YWNDSSRYGQVGVEYC, 0.49 ± 0.8.
Consider YWSYSLGGSQEYSGHTMA, for which the amyloid nucleation score was -0.135 ± 0.35.
The same measure, in the same setting: as for YYACNKAND, the figure is -0.607 ± 1; as for YYDLRAATESDVRHGTADHR, 0.195 ± 0.37.
As to YYGLVQRLFSCVCYYVLTF, the amyloid nucleation score entry is “inactive”.
Still for that read-out and setting: as for YYGNFHLMSWVWSIGPCSIY, the figure is 4.88 ± 0.11; as for YYGSGNPSQGVVSEWLVRDA, 0.571 ± 0.36.
In turn, YYLSFCVSNAGAPGMDLMGQ returned an amyloid nucleation score of 0.328 ± 0.65.
YYMTRVSPFQSFIVIMGASQ had an amyloid nucleation score of 1.89 ± 0.24.
Still for that read-out and setting: in the case of YYNSATPTDDGWWKISG it was -0.574 ± 1.
The same measure, in the same setting: in the case of YYWGAGTQHGYLFTFVGGND it was -0.326 ± 1.
